Molecular target: cdc42, P60953
Sequence (P60953 1-188): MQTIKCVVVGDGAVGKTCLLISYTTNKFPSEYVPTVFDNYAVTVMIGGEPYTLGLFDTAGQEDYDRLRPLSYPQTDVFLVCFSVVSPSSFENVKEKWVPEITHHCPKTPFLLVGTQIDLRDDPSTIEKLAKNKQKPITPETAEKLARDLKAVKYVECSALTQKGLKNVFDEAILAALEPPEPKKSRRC

B1: FYVE, RhoGEF and PH domain-containing 5 (FGD5) (protein)
chain: MFRGPKPPIAPKPRLTAPNEWRASVYLNDSLNKCSNGRLPCVDRGLDEGPRSIPKCSESETDEDYIVVPRVPLREDEPKDEGSVGNKALVSPESSAEEEEEREEGGEACGLEGTGAGEDSVAPAAPGAGALSREGEEGTDLALEDEGEGCADEPGTLEQVSRSEEEEKLVQPHRECSLEDSGPWAGEGVFQSDLLLPHIHGEDQEPPDTPGEAEEDDEEGCASTDPAGADEGSGPDRPTEDMGQDAEDTSEEPPEKEELAGVQEAETATDCPEVLEEGCEEATGVTGGEQVDLSEPPDHEKKTNQEVAAATLEDHAQDESAEESCQIVPFENDCMEDFVTSLTGSPYEFFPTESTSFCSESCSPLSESAKGLESEQAPKLGLRAEENPMVGALCGQCGSLQGGAAEGPAAPDVVVVLEEEALDDALANPYVMGVGLPGQAAPGEGGQAASDALGGYGSKEELNCEAEGGLVPADRKNTSTRVRPHSGKVAGYVPETVPEETGPEAGSSAPGIGGAAEEVGKTLLSLEGKPLEASRALPAKPRAFTLYPRSFSVEGREIPVSVYQEPEGSGLDDHRIKRKEDNLSLSCVIGSSGSFSQRNHLPSSGTSTPSSMVDIPPPFDLACITKKPITKSSPSLLIESDSPDKYKKKKSSFKRFLALTFKKKTENKLHVDVNVSSSRSSSESSYHGPSRILEVDRRSLSNSPQLKSRTGKLRASESPSSLIFYRDGKRKGVPFSRTVSRVESFEDRSRPPFLPLPLTKPRSISFPSADTSDYENIPAMNSDYENIQIPPRRPARAGAFTKLFEDQSRALSTANENDGYVDMSSFNAFESKQQSADQDAESAYTEPYKVCPISSAAPKEDLTSDEEQRSSEEEDSASRDPSVTHKVEGQSRALVIAQELLSSEKAYVEMLQHLNLDFHGAVMRALDDMDHEGRDTLAREELRQGLSELPAIHDLHQGILEELEERLSNWESQQKVADVFLAREQGFDHHATHILQFDRYLGLLSENCLHSPRLAAAVREFEQSVQGGSQTAKHRLLRVVQRLFQYQVLLTDYLNNLCPDSAEYDNTQGALSLISKVTDRANDSMEQGENLQKLVHIEHSVRGQGDLLQPGREFLKEGTLMKVTGKNRRPRHLFLMNDVLLYTYPQKDGKYRLKNTLAVANMKVSRPVMEKVPYALKIETSESCLMLSASSCAERDEWYGCLSRALPEDYKAQALAAFHHSVEIRERLGVSLGERPPTLVPVTHVMMCMNCGCDFSLTLRRHHCHACGKIVCRNCSRNKYPLKYLKDRMAKVCDGCFGELKKRGRAVPGLMRERPVSMSFPLSSPRFSGSAFSSVFQSINPSTFKKQKKVPSALTEVAASGEGSAISGYLSRCKRGKRHWKKLWFVIKGKVLYTYMASEDKVALESMPLLGFTIAPEKEEGSSEVGPIFHLYHKKTLFYSFKAEDTNSAQRWIEAMEDASVL
- GTP-cdc42 level in a GEF-activity assay (G-lisa, chemo-luminescent measurement of GTP-bound small G-proteins in lysates of Sham Ad or Ad-FGD5 transfected HUVECs): cdc42-FGD5 binding led to specific activation of cdc42 in a GEF-activity assay
